Assay [1] deals with T1, LAP (LAP-TGFβ1) expressed endogenously on murine cells (murine, UniProt P04202 30-390).
T1 construct: Natural LAP-TGFβ1 on primary mouse cells, GARP+ or GARPneg; also called LAP on murine platelets, T cells, Tregs, B cells, tumour immune cells
Description: summary table; binding to GARP+ murine cells.

Assay [2] addresses T2, murine LAP-TGFβ1 on transfected cells (murine, UniProt P04202 30-390).
T2 construct: Overexpressed on P3U1 or HT1080 cells; also called P3U1-murine LAP-TGFβ1; murine TGFβ1 on transfected cells
Kind of assay: summary table; binding to murine TGFβ1 on transfected cells.

Assay [3] deals with T3, human LAP-TGFβ3 on HT1080 cells (human, UniProt P10600 24-412).
T3 construct: also called human TGFβ3
T3 sequence: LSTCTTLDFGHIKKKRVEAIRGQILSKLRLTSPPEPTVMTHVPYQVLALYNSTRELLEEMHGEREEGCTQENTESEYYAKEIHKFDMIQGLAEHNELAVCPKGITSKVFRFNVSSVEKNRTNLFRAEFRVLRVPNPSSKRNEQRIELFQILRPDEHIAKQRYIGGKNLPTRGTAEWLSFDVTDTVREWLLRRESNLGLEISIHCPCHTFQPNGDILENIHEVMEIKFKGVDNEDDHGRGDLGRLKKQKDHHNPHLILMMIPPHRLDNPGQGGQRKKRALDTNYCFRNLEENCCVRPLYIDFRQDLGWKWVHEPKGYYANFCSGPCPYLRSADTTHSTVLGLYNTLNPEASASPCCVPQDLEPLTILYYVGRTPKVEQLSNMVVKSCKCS
Description: summary table; binding to human TGFβ3. The method, then:
(§1) Briefly, 4×10⁵ each of (a) HT1080 cells, (b) HT1080 cells overexpressing human LAP-TGFβ1, (c) HT1080 cells overexpressing human LAP-TGFβ2, (d) HT1080 cells overexpressing human LAP-TGFβ3, (e) HT1080 cells overexpressing murine LAP-TGFβ1, (f) P3U1 cells, (g) P3U1 cells overexpressing LAP-TGFβ1 and GARP, and (h) P3U1 cells overexpressing LAP-TGFβ1 and LRRC33 were cultured in 96-well plates. The plates were centrifuged for 5 min at 1,500 rpm, liquid was removed, and cells were resuspended with 200 μL FACS buffer. The plates were centrifuged again, diluted primary antibody was added to each well, and the plates were incubated on ice for 20 minutes, followed by centrifugation. The cells were resuspended in 200 μL FACS buffer, centrifuged again, and resuspended in 50 μL diluted secondary antibody (Alexa647-anti-Human IgG or APC-anti-Mouse IgG). The plates were incubated on ice for 20 minutes in the dark, washed twice with 200 μL FACS buffer, and cells from each well (in 200 μL FACS buffer) were read on the Attune NXT instrument.

Assay [4] addresses T4, human LAP-TGFβ2 on HT1080 cells (human, UniProt P61812 21-414).
T4 construct: also called human TGFβ2
T4 sequence: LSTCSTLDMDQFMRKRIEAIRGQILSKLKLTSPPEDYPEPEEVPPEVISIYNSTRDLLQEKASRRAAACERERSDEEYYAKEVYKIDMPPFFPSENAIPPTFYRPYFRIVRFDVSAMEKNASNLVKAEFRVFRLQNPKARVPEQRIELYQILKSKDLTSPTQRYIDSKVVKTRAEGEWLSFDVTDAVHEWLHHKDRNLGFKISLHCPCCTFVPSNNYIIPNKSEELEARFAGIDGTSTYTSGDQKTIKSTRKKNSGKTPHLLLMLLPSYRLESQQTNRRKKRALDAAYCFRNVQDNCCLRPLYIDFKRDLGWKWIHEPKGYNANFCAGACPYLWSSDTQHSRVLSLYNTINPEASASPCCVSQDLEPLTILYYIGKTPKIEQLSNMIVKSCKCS
Kind of assay: summary table; binding to human TGFβ2. The method, then: as §1

Assay [5] addresses T2, murine LAP-TGFβ1 on transfected cells. Description: cell-based or functional assay.
For assay [6], the target named is T5, human LAP-TGFβ1 on transfected cells (human, UniProt P01137 30-390). Description: cell-based or functional assay.
T5 sequence (P01137 other isoform, or with tags, fused parts or gaps): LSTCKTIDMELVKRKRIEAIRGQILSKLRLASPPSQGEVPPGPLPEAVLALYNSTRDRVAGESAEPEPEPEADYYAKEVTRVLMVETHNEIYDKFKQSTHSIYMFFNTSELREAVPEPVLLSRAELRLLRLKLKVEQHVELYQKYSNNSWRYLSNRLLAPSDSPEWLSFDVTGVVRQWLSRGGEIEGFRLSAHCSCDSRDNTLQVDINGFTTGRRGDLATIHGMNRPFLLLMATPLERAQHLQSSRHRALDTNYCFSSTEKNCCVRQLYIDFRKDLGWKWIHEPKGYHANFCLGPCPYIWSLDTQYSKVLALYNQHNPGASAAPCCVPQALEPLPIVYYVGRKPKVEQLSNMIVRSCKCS
Assay [7] has as its target T6, LAP-only variant (human LAP without mature TGFβ1) on HT1080 cells (human, UniProt P01137 30-277).
T6 construct: Overexpressed on HT1080 cells; also called HT1080-emptyLAP; empty LAP
Description: flow cytometry, HT1080 cells overexpressing the LAP-only variant. As for the experimental part:
as §1
(§2) Briefly, 4×10⁵ each of (a) HT1080 cells, (b) HT1080 cells overexpressing human LAP-TGFβ1, (c) HT1080 cells overexpressing LAP-TGFβ1 with K27C and Y75C mutations, (d) HT1080 cells overexpressing LAP-TGFβ1 with a Y74T mutation, and (e) HT1080 cells overexpressing the LAP-only variant were cultured in 96-well plates. […]
(Flow cytometry measures light scatter and fluorescence of single cells or particles in a stream.)

Assay [8] addresses T4, human LAP-TGFβ2 on HT1080 cells. Kind of assay: flow cytometry, HT1080 cells overexpressing human LAP-TGFβ2. The method, then: as §1
The target in assay [9] is T7, mature TGFβ1 (free human TGFβ1, without LAP) (human, UniProt P01137 279-390).
T7 construct: also called free TGFβ1
T7 sequence (P01137 279-390 limits assumed): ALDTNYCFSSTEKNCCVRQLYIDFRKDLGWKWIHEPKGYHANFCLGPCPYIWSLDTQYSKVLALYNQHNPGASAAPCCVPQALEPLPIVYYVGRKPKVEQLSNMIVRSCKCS
Description: inhibition of a TGFβ1 ELISA after pre-incubation with mature TGFβ1. As for the experimental part:
To determine whether anti-LAP antibodies 28G11_hIgG1, 22F9_hIgG1, 20E6_hIgG1, 17G8_hIgG1, and 24E3_hIgG1, bind to free human TGFβ1 (i.e., mature TGFβ1 that lacks LAP), the ability of the antibodies to inhibit an anti-TGFβ ELISA was evaluated. Briefly, mature TGFβ1 (1000 μg) was incubated with the indicated anti-LAP antibodies at 10 μg/mL, an isotype control antibody as a negative control or the anti-TGFβ antibody 1D11 as a positive control for 10 minutes on ice. Supernatants were assayed in a TGFβ1 ELISA (R&D Systems) according to the manufacturer instructions to measure free TGFβ1.
(In general: In an ELISA, binding on a coated surface is turned into a signal by an enzyme label.)

Assay [10] has as its target T8, human LAP-TGFβ1 with a Y74T mutation on HT1080 cells (human, UniProt P01137 30-390).
T8 construct: also called HT1080-Y74T; Y74T (open) LAP-TGFβ1 variant
Kind of assay: flow cytometry, HT1080 cells overexpressing the variant. The method, then:
as §1, §2

The target in assay [11] is T3, human LAP-TGFβ3 on HT1080 cells. Description: flow cytometry, HT1080 cells overexpressing human LAP-TGFβ3. The method, then:
as §1

The target of assay [12] is T5, human LAP-TGFβ1 on transfected cells. Description: summary table; binding to human TGFβ1 on transfected cells.
For assay [13], the target named is T9, recombinant human LAP-TGFβ1-Fc fusion protein (human, UniProt P01137 30-390).
T9 construct: also called human TGFβ1 in absence of anchor protein (ForteBio); not shown: Fc part, linker and order of fusion not described
T9 sequence (P01137 other isoform, or with tags, fused parts or gaps limits assumed): as the sequence (P01137 other isoform, or with tags, fused parts or gaps) above
Description: bio-layer interferometry (ForteBio), single concentration. The text has this:
The ability of the antibodies to bind in this assay provides definitive evidence that the antibodies bind to LAP-TGFβ1 in the absence of an anchor protein.
A general note: In BLI a coated tip is dipped into the sample, and binding shifts an interference pattern.

T2 sequence (P04202 30-390): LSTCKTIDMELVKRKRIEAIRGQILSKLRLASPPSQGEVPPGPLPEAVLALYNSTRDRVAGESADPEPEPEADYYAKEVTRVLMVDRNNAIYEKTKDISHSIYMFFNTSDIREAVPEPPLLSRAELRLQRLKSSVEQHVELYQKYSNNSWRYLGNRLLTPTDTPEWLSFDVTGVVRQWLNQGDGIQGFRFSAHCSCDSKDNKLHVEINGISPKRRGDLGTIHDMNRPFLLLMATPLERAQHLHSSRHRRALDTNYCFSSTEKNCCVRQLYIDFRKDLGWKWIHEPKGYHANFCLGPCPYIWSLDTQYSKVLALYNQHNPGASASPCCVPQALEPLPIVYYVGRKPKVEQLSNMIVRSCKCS
T6 sequence (P01137 30-277 limits assumed, change not shown): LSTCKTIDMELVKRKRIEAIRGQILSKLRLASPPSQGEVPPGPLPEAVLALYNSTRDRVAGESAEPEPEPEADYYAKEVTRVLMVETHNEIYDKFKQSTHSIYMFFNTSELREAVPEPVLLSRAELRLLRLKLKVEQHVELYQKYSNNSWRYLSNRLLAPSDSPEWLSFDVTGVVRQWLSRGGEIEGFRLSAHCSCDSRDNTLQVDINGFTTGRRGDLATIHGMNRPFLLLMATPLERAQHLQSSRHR
T1 sequence (P04202 30-390): as the sequence (P04202 30-390) above
T8 sequence (P01137 other isoform, or with tags, fused parts or gaps Y74T Y74T): as the sequence (P01137 other isoform, or with tags, fused parts or gaps) above, with Y74T counted along it

B1: 7H4 (antibody, V domains shown)
VH: DVQLQESGPGLVKPSQSLSLTCSVTGYSITSGYYWNWIRQFPGNKLEWMGYISYDGTNNYNPSLKNRISITRDTSKHQFFLKLNSVTTEDTATYYCARSFYNNYFDFWGQGTTLTVSS
VL: DIQMTQSPSSLSASLGGKVTITCKASQDIDKYIAWYQHKPGKGPRLLIHYTSTLQPGIPSRFSGSGSGRDYSFNISNLEPEDIATYYCLQYDNLRTFGGGTKLEIK
In the case of B1, the binding result in assay [1] and in assay [2] was “binds” throughout.

B2: 28G11 (antibody, V domains shown)
VH: EVKLVESGGGLVQPGGSLSLSCAASGFTFTDYYMSWVRQPPGKALEWLGFIRNKPNGYTTEYSASVKGRFTISRDNSQSILYLQMNVLRAEDSATYYCARYTGGGYFDYWGQGTTLTVSS
VL: DIQMTQTTSSLSASLGDRLTISCRASQDISNYLNWYQQKPDGTVKLLIYYTSRLHSGVPSRFSGSGSGTDYSLTISNLEQADIATYFCQQGDTLPWTFGGGTKLEIK
notes: Mouse hybridoma antibody; Used biotinylated or dye-conjugated in cell assays; also called 28G11_(hyb); 28G11_hyb
On to B2, for which the binding result in assay [3] and in [4] was “no binding” throughout. Also, the “IC50 of inhibition of TGFβ1 activation, P3U1 cell assay” value is 1 µg/mL in [5] and 1.4 µg/mL in assay [6].

B3: 28G11_hIgG1 (antibody, V domains shown)
VH: EVKLVESGGGLVQPGGSLSLSCAASGFTFTDYYMSWVRQPPGKALEWLGFIRNKPNGYTTEYSASVKGRFTISRDNSQSILYLQMNVLRAEDSATYYCARYTGGGYFDYWGQGTTLTVSS
VL: DIQMTQTTSSLSASLGDRLTISCRASQDISNYLNWYQQKPDGTVKLLIYYTSRLHSGVPSRFSGSGSGTDYSLTISNLEQADIATYFCQQGDTLPWTFGGGTKLEIK
notes: 28G11 in human IgG1 format, by its name
Regarding B3, the binding result in [7] is given as “no binding”; in assay [8] it was “no binding”; in [9], “no binding (tested: 10 µg/mL)”; in assay [10], “no binding”; in assay [11], “no binding”.

B4: 16B4 (antibody, V domains shown)
VH: QVTLKESGPGILQPSQTLSLTCSFSGFSLNTFGMGVGWIRQPSGKGLEWLAHIWWDDDKYYNPALKSRLTISKDTSKNQVFLKIANVDTADTATYYCARIYYYGSWGLYYFDYWGQGTTLTVSS
VL: DIQMTQTTSSLSASLGDRVTISCRASQDISNYLNWYQQKPDGTVKLLIYYTSRLHSGVPSRFSGSGSGTDYSLTISNLEQEDIATYFCQQGNTLPPTFGGGTKLEIK
B4: the binding result in assay [12] and in assay [13] was “no binding” throughout.

The values above are taken from patent US20190144549A1 (TILOS THERAPEUTICS, published 2019).
